B1: Spindle assembly checkpoint protein BUB3 (Saccharomyces cerevisiae), P26449 (parent)
chain: MQIVQIEQAPKDYISDIKIIPSKSLLLITSWDGSLTVYKFDIQAKNVDLLQSLRYKHPLLCCNFIDNTDLQIYVGTVQGEILKVDLIGSPSFQALTNNEANLGICRICKYGDDKLIAASWDGLIEVIDPRNYGDGVIAVKNLNSNNTKVKNKIFTMDTNSSRLIVGMNNSQVQWFRLPLCEDDNGTIEESGLKYQIRDVALLPKEQEGYACSSIDGRVAVEFFDDQGDDYNSSKRFAFRCHRLNLKDTNLAYPVNSIEFSPRHKFLYTAGSDGIISCWNLQTRKKIKNFAKFNEDSVVKIACSDNILCLATSDDTFKTNAAIDQTIELNASSIYIIFDYEN
partner: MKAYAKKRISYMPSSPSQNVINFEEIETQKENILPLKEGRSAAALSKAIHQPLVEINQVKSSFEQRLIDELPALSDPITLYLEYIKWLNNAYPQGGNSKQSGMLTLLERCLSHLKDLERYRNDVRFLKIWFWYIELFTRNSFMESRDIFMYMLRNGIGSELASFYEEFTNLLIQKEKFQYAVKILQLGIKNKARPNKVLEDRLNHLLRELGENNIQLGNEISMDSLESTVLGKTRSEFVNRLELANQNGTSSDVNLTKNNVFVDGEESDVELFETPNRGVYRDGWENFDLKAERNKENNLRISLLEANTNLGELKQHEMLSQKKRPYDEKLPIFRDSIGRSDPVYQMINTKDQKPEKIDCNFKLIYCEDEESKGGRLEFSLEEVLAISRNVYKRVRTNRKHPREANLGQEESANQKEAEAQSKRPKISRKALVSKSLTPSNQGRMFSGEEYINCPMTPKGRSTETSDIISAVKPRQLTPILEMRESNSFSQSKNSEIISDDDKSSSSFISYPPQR

Variants of: B1
Settings: with mad3_yeast MAD3, P47074

effect of a mutation on the interaction | Variant
disrupting interaction strength | MQIVQIEQAPKDYISDIKIIPSKSLLLITSWDGSLTVYKFDIQAKNVDLLQSLRYKHPLLCCNFIDNTDLQIYVGTVQGEILKVDLIGSPSFQALTNNEANLGICRICKYGDDKLIAASWDGLIEVIDPRNYGDGVIAVKNLNSNNTKVKNKIFTMDTNSSRLIVGMNNSQVQWFRLPLCEDDNGTIEESGLKYQIEDVALLPKEQEGYACSSIDGRVAVEFFDDQGDDYNSSKRFAFRCHRLNLKDTNLAYPVNSIEFSPRHKFLYTAGSDGIISCWNLQTRKKIKNFAKFNEDSVVKIACSDNILCLATSDDTFKTNAAIDQTIELNASSIYIIFDYEN [R197E]
